Among the data in publication PMC10814857, “Functional Classification and Interaction Selectivity Landscape of the Human SH3 Domain Superfamily” (Cells, 2024) are Kd values, retold here.

The target in experiment [1] is P7, fluorescein-labelled proline-rich peptide from the SOS1 proline-rich domain (human). Put plainly: fluorescence polarisation; 0.2 µM fluorescein-labelled peptide, SH3 domain titrated 0 to 200 µM; 30 mM Tris/HCl pH 7.5, 5 mM MgCl2, 3 mM DTT, 25 °C; quadratic ligand binding equation. (In general: Fluorescence polarisation rises when a labelled molecule tumbles more slowly, as on binding a larger partner.)

The target in experiment [2] is SOS1 P7 (Homo sapiens), Q07889. Nature of the experiment: fluorescence polarization.

A value given as a limit tells only on which side of the number the result lay.

B1: ARHGAP12 SH3 domain, GST cleaved (domain or fragment)
chain: PGQVYIEVEYDYEYEAKDRKIVIKQGERYILVKKTNDDWWQVKPDENSKAFYVPAQYVKEVTR
Usually Kd stands for the free concentration of one partner at which half of the binding sites on the other are occupied at equilibrium, for simple one-to-one binding. A lower Kd goes with a tighter complex. Regarding B1, the Kd in experiment [1] stood at 200 nM.

B2: ARHGAP12 SH3, Q8IWW6 (protein)
chain: KIIPGQVYIEVEYDYEYEAKDRKIVIKQGERYILVKKTNDDWWQVKPDENSKAFYVPAQYVKEVTRKAL
For the molecule B2, the Kd in experiment [2] was less than 500 nM.
